Where two headings read alike, the source gives them in different places.

The target in series [1] is HpDprA(5-217), C-terminally truncated Helicobacter pylori DprA (H. pylori strain 26695) (UniProt B5ZAA1). As to the kind of experiment: static light scattering.
Series [2] shares this target. In words: SEC. In general terms: Size exclusion chromatography separates by hydrodynamic size, large species first.
Series [3] shares this target. In words: crystal structure.
The target of series [4] is HpDprA(5-225), C-terminally truncated Helicobacter pylori DprA (H. pylori strain 26695) (UniProt B5ZAA1).
Series [5] shares this target. In words: crystal structure.
Series [6] addresses Full-length Helicobacter pylori DprA (DNA processing protein A, HP0333) (H. pylori strain 26695) (UniProt B5ZAA1). As to the kind of experiment: SEC.
Series [7] concerns the target T1, HpDprA(5-217)WT (Helicobacter pylori 26695, UniProt O25100 5-217).
T1 sequence: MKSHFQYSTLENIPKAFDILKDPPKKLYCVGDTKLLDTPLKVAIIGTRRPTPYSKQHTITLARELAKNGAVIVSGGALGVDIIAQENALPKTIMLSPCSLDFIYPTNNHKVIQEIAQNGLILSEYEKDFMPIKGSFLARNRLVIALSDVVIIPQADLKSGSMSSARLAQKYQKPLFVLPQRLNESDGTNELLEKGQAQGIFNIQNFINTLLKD
As to the kind of experiment: MST.

The target of series [8] is T1, HpDprA(5-217)WT. In words: EMSA. Background: In EMSA bound probe runs differently from free probe, usually more slowly.
In series [9] the target is T1, HpDprA(5-217)WT. In words: EMSA. This is another data set of the same source.
The target in series [10] is T1, HpDprA(5-217)WT. In words: SEC/SLS.
Series [11] has as its target T2, HpDprA full-length (Helicobacter pylori 26695, UniProt O25100 1-270).
T2 sequence: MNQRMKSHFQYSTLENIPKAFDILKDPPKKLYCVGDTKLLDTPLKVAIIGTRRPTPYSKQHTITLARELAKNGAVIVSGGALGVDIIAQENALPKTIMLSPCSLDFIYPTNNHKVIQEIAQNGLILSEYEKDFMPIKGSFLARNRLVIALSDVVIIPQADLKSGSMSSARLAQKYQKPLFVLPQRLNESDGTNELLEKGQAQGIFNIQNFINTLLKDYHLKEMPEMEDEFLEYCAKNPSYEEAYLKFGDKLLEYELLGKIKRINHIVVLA
As to the kind of experiment: EMSA.

In the case of “HpDprA(5-217), C-terminally truncated Helicobacter pylori DprA (from UniProt B5ZAA1 5-217) (domain or fragment)”, the stoichiometry N in series [1], in series [2] and in series [3] was 2 in each case.
Consider “HpDprA(5-225), C-terminally truncated Helicobacter pylori DprA (from UniProt B5ZAA1 5-225) (domain or fragment)”, for which the stoichiometry N in [4] and in series [5] was 2 in each case.
“Full-length Helicobacter pylori DprA (DNA processing protein A, HP0333) (from UniProt B5ZAA1 1-266) (natural protein)” returned a stoichiometry N in series [6] of 2.

B1: dT6 (ssDNA)
DNA: TTTTTT
In the case of B1, the binding result in [7] was “no binding”.

B2: dT20 (ssDNA)
DNA: TTTTTTTTTTTTTTTTTTTT
With B2, the binding result in series [8] is recorded as “binds”.

B3: dA35 (ssDNA)
DNA: AAAAAAAAAAAAAAAAAAAAAAAAAAAAAAAAAAA
B3 had a Kd in series [7] of 1200 ± 35.3 nM.

B4: dT50 (ssDNA)
DNA: TTTTTTTTTTTTTTTTTTTTTTTTTTTTTTTTTTTTTTTTTTTTTTTTTT
Turning to B4, in [9], the binding result is reported as “binds”.

B5: dT40 (ssDNA)
DNA: TTTTTTTTTTTTTTTTTTTTTTTTTTTTTTTTTTTTTTTT
Turning to B5, in series [9], the binding result is “binds”.

B6: dR30 (ssDNA)
DNA: CCACAACTGGATGATGCGGCGAAGTACTGT
The molecule B6 had a dissociation constant Kd in [7] of 370 ± 8.82 nM.

B7: dT10 (ssDNA)
DNA: TTTTTTTTTT
Turning to B7, in [7], the binding result was “no binding”.

B8: dT60 (ssDNA)
DNA: TTTTTTTTTTTTTTTTTTTTTTTTTTTTTTTTTTTTTTTTTTTTTTTTTTTTTTTTTTTT
With B8, the binding result in [10] was “binds”.

B9: dR35 (ssDNA)
DNA: TACCTAACTGGATGAATCTGAGAACTACTGTGAAT
In the case of B9, in [11], the binding result is listed as “binds”.

B10: dsDNA30 (dsDNA)
DNA 1: CCACAACTGGATGATGCGGCGAAGTACTGT
DNA 2: ACAGTACTTCGCCGCATCATCCAGTTGTGG
For B10, binding in series [7] was characterised by a dissociation constant (Kd) of 831 ± 8.48 nM.

By stoichiometry N is commonly meant a count of units in the complex or per binding partner. One may read the Kd as a measure of binding affinity in units of concentration. Lower therefore signals a tighter complex.

For the origin of these results see publication PMC3950713.
